According to paper PMC3479198 (Nucleic Acids Research, 2012):

Molecular target: the molecule itself
Experiment: electron microscopy

B1: Helicobacter pylori DnaA protein (natural protein, H. pylori, UniProt O26057 1-457, looked up)
chain: MDTNNNIEKEILALVKQNPKVSLIEYENYFSQLKYNPNASKSDIAFFYAPNQVLCTTITAKYGALLKEILSQNKVGMHLAHSVDVRIEVAPKIQINAQSNINYKAIKTSVKDSYTFENFVVGSCNNTVYEIAKKVAQSDTPPYNPVLFYGGTGLGKTHILNAIGNHALEKHKKVVLVTSEDFLTDFLKHLDNKTMDSFKAKYRHCDFFLLDDAQFLQGKPKLEEEFFHTFNELHANSKQIVLISDRSPKNIAGLEDRLKSRFEWGITAKVMPPDLETKLSIVKQKCQLNQITLPEEVMEYIAQHISDNIRQMEGAIIKISVNANLMNASIDLNLAKTVLEDLQKDHAEGSSLENILLAVAQSLNLKSSEIKVSSRQKNVALARKLVVYFARLYTPNPTLSLAQFLDLKDHSSISKMYSGVKKMLEEEKSPFVLSLREEIKNRLNELNDKKTAFNSSE
B1: binds.
